Laboratory results from paper PMC4520625 (Biochemistry, 2015).
Ends that are not written are not given here. * marks the point of attachment. Galβ1,3GalNAcα = CC(=O)N[C@@H]1[C@@H](O[C@@H]2O[C@H](CO)[C@H](O)[C@H](O)[C@H]2O)[C@@H](O)[C@@H](CO)O[C@@H]1*

B1: asialofetuin (ASF), unlabeled (natural protein, UniProt P12763 19-359, looked up)
chain: IPLDPVAGYKEPACDDPDTEQAALAAVDYINKHLPRGYKHTLNQIDSVKVWPRRPTGEVYDIEIDTLETTCHVLDPTPLANCSVRQQTQHAVEGDCDIHVLKQDGQFSVLFTKCDSSPDSAEDVRKLCPDCPLLAPLNDSRVVHAVEVALATFNAESNGSYLQLVEISRAQFVPLPVSVSVEFAVAATDCIAKEVVDPTKCNLLAEKQYGFCKGSVIQKALGGEDVRVTCTLFQTQPVIPQPQPDGAEAEAPSAVPDAAGPTPSAAGPPVASVVVGPSVVAVPLPLHRAHYDLRHTFSGVASVESSSGEAFHVGKTPIVGQPSIPGGPVRLCPGRIRYFKI
modifications: three complex-type N-glycans (asialo)

Columns and labels:
[1] = target: full-length human galectin-3 (human, UniProt P17931 1-250); test: ITC
Chain of full-length human galectin-3 (P17931 whole entry): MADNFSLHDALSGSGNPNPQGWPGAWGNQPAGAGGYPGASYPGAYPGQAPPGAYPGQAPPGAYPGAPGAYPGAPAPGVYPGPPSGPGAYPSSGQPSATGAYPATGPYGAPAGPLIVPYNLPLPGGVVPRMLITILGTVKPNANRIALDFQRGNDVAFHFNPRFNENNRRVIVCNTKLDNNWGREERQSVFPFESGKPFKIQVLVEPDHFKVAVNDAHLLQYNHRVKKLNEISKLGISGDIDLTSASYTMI

His-tagged galectin-3 = His-tagged galectin-3 (human, UniProt P17931 1-250); test: AlphaScreen or HTRF
Chain of His-tagged galectin-3 (P17931 whole entry): as above

Ka [1] [M⁻¹] | dH [1] [kcal/mol] | stoichiometry N [1] | IC50 (His-tagged galectin-3) [nM] | Binder
7600 | -1.79 | 0.87 | – | HGVT(Galβ1,3GalNAcα)SAPDTRPAPGS [MUC1(1-15)-Thr4 truncated glycopeptide carrying the TF antigen]
2900 | -1.32 | 0.97 | – | HGVT(Galβ1,3GalNAcα)SAPD [MUC1(1-8)-Thr4 truncated glycopeptide carrying the TF antigen]
– | – | – | 2.3 | B1
